The values that follow come from patent publication US20170015742A1 (published 2017).

Sequences and labels used below:
B1: BEW-9E7-B4 (antibody, V domains shown)
VH: QIQLVQSGPELKKPGESVKISCKASGYTFTNYGMYWVKQAPGQGLQYMGWIDTETGKPTYADDFKGRFVFFLETSASTAYLQINNLRNEDMATYFCARWGYTSDYYYGWFPDWGQGTLVTVST
VL: DTVLTQSPALAVSPGERVSISCRASEGVNSYMHWYQQNPGQQPKLLIYKASNLASGVPARFSGSGSGTDFTLNIHPVEADDTATYFCQQNWNVPLTFGSGTKLEIK
notes: Rat hybridoma anti-human VEGF-A monoclonal antibody, isotype IgG2b/kappa
B2: BEW-9D2-E8 (antibody, V domains shown)
VH: QIQLVQSGPELKKPGESVKISCKASGYTFTNYGMYWVKLAPGQGLQYLGWINTETGKPTYADDFKGRFVFFLETSASTAYLQINNLRNEDMATYFCARPSDYYDGFWFAYWGQGTLVTVSS
VL: DTVLTQSPALTVSPGERVSISCRASEWVNSYMHWYQQNPGQQPKLLIYKASNLASGVPARFSGSGSGTDFTLTLDPVEADDTATYFCQQSWNDPLTFGSGTKLEIK
notes: Rat hybridoma anti-human VEGF-A monoclonal antibody, isotype IgG2a/kappa
B3: BEW-1B10-B9-C3 (antibody, V domains shown)
VH: EVQLVESGGGLVQPGRSLKLSCAASGFSFSKYDMAWFRQTPTKGLEWVASITTSGVGTYYRDSVKGRFTVSRDNAKSTLYLQMDSLRSEDTATYYCARGYGAMDAWGQGTSVTVSS
VL: DIQMTQSPASLSASLEEIVTITCKASQDIDDYLSWYQQKPGKSPQLVIYAATRLADGVPSRFSGSGSGTQYSLKISRLQVDDSGIYYCLQSSSTPWTFGGGTNLELK
notes: as for B2
B4: BED-4G10-C8 (antibody, V domains shown)
VH: QVQLQQSGTELVKPGSSVKISCKASGYTFTSNYMHWIRQQPGNGLEWIGWIYPGDGDTNYNHNFNGKATLTADKSSSTAYMQLSSLTSEDFAVYFCASSTRAIPGWFTYWGQGTLVTVSS
VL: DTVLTQSPALAVSPGERVSISCWASESVSTLMHWYQQKLGQQPKLLIYGASNLESGVPARFRGSGSGTDFTLTIDPVEADDTATYFCQQSWSDPYTFGAGTKLELK
notes: as for B1
B5: BDB-4G8-D4 (antibody, V domains shown)
VH: QIQLVQSGPELKKPGESVKISCKASGYTFTNYGMYWVKQAPGQGLQYMGWINTETGKPTYADDFKGRFVFFLETSASTAYLQINNLKNEDMATYFCARTNYYYRSYIFYFDYWGQGTMVTVSS
VL: DTVLTQSPALAVSPGERVSISCRASESVSTHMHWYQQKPGQQPKLLIYGASNLESGVPARFSGSGSGTDFTLTIDPVEADDTATYFCQQSWNDPFTFGAVTKLELK
notes: as for B1
B6: BEW-9C2-D6 (antibody, V domains shown)
VH: QIQLVQSGPELKKPGESVKVSCKASGYTFTNYGIHWVKQAPGQGLQYVGWINTETGRPTYADDFKGRFVFFLETSASTAYLQINNLKNEDMATYFCARPLYYGYAHYFDYWGQGVMVTVSS
VL: DIQMTQSPASLSASLEEIVTITCQASQDIGNWLAWYQQKPGKSPQLLIYGATSLADGVPSRFSGSRSGTQYSLKISRLQVEDIGIYYCQQASSVTYTFGAGTKLELK
notes: as for B1
B7: BEW-3A1-D10-G9 (antibody, V domains shown)
VH: QVQLEQSGAELVKPGTSVKLSCMASGYTSSSNHMNWMKQTTGQGLEWIGIINPGSGGTRYNVKFEGKATLTVDKSSSTAFMQLNSLTPEDSAVYYCARAGFPGPFSYYAMGAWGQGTSVTVSS
VL: DIQMTQSPPVLSASVGDRVTLSCKASQNIHNNLDWYQQKHGEAPKLLIFYTNNLQTGIPSRFSGSGSGTDYTLTISSLQPEDVATYYCYQYNSGYTFGAGTKLELK
notes: as for B1

For this assay, the target named is T1, recombinant human VEGF-A 165 (human, UniProt P15692 207-395).
T1 construct: also called huVEGF-A165; hVEGF165
T1 sequence (P15692 other isoform, or with tags, fused parts or gaps limits assumed): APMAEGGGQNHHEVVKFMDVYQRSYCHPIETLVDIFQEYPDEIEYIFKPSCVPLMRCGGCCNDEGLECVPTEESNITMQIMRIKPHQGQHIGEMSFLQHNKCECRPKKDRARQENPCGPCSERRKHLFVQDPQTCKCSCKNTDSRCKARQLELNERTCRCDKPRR
The assay is described as follows: receptor competition ELISA, biotinylated hVEGF165 binding to coated hVEGF-R2-Fc. The procedure: To identify molecules that could block the binding of hVEGF₁₆₅ to the hVEGF-R2 (KDR/Flk-1) receptor, a competition ELISA was performed. […] Plates were then washed four times with wash buffer (TBS, 0.05% Tween-20) and blocked with Superblock blocking buffer (Thermo Scientific, cat#37535). […] The pre-incubated sample/hVEGF₁₆₅ complex was added to the coated plate at 50 μL in duplicate and incubated for 30 minutes at 25° C. with shaking. Following incubation, plates were washed four times with wash buffer. Streptavidin-polyHRP-40 (Fitzgerald cal#65r-s104phrp) was diluted in assay diluent (10% Superblock containing 0.05% surfactamps) and added to plates (50 μL) for 45 minutes at 25° C. with shaking. Plates were washed four times with wash buffer and developed with the addition of Enhanced K-blue TMB substrate (Neogen cat#308177). The reaction was stopped with 2N sulfuric acid (VWR, cat# BDH3500-1) and the absorbance was read at 450 nm-570 nm. A decrease in observed optical density indicates the test molecule is blocking the hVEGF₁₆₅ binding to the hVEGF-R2-Fc. Data was analyzed using Softmax Pro 4.8 software and IC₅₀ values calculated using a sigmoidal dose response (variable slope) fit in GraphPad Prism 5.
Anti-VEGF-A antibodies derived from rat hybridomas were characterized for binding, function and cross-reactivity in a panel of assays. Supernatants were tested for the ability to bind hVEGF₁₆₅ (Example 1.3) and block binding of hVEGF₁₆₅ to hVEGFR2 in a competition ELISA format (Example 1.4).
For orientation: An ELISA detects its analyte on a solid surface through an enzyme-linked reagent.
As for B1, the IC50 (in general, the concentration that inhibits the measured activity by half) came to 0.207 nM. The same measure for B2: 0.127 nM; for B3: 0.326 nM; for B4: 0.13 nM. For the molecule B5, the half-maximal inhibitory concentration (IC50) worked out at 0.13 nM. As for B6, the figure is 0.155 nM; as for B7, 0.124 nM.
